Tests used:
[1] = molecular target: T1, 14-3-3ζ (human (endogenous in HEK 293), UniProt P63104 1-245); test: co-IP; endogenous proteins; HEK 293 lysate precipitated with 14-3-3ζ antibody, protein A agarose; Trx by Western blot; cells treated with buffer, 200 pM Klotho or NAC for 40 min; Trx released from the beads only with DTT, 2-ME or THP; settings: partners not purified
T1 construct: 14-3-3ζ, endogenous in HEK 293 cells; Klotho treatment of the cells raises phosphorylation at Ser-58 and the monomer level; the phosphorylated form was not isolated as a molecule of its own; also called 14-3-3zeta; endogenous 14-3-3ζ; source: endogenous, HEK 293 lysate
T1 sequence (looked up): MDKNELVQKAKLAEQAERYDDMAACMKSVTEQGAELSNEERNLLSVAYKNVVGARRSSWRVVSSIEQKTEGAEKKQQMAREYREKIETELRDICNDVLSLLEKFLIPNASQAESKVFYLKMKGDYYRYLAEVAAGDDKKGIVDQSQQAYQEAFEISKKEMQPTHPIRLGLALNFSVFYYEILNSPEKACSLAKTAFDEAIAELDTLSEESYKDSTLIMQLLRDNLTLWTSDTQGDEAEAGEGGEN

[2] = molecular target: GST-tagged 14-3-3ζ dimer deficient mutant (Dm) (UniProt P63104); test: pull-down; lysates of HEK 293 cells transfected with GST-14-3-3ζ Wt or Dm adsorbed onto glutathione sepharose, binding buffer 20 mM Tris-Cl pH 7.5, 2 mM EDTA, 1 mM EGTA, 80 mM NaCl; endogenous Trx by Western blot; cells treated with buffer or secreted Klotho for 40 min

B1: thioredoxin (Trx) (natural protein, human (endogenous in HEK 293), UniProt P10599 1-105, looked up)
chain: MVKQIESKTAFQEALDAAGDKLVVVDFSATWCGPCKMIKPFFHSLSEKYSNVIFLEVDVDDCQDVASECEVKCMPTFQFFKKGQKVGEFSGANKEKLEATINELV
notes: thioredoxin (Trx), endogenous in HEK 293 cells; active site cysteines named as Cys32/35; Detected by Western blot or iCE with a Trx antibody; source: endogenous, HEK 293 lysate
[1]
  fold increase of bound Trx, Klotho-treated versus buffer-treated cells: ~2 fold
[2]
  fold increase of bound Trx relative to 14-3-3ζwt: 2 fold

Reference: PMC4627807, “Klotho Regulates 14-3-3ζ Monomerization and Binding to the ASK1 Signaling Complex in Response to Oxidative Stress” (PLoS ONE, 2015)
